Source: the Human Domainome abundance scans (Beltran et al. 2025)
± gives the uncertainty stated by the source.

Experiment: abundance fitness (aPCA) (normalised: wild type 0, dead -1); higher = more abundant; growth selection in yeast, the domain comes from the species named
Conditions: Homo sapiens

Row | Substance | abundance fitness
1 | BAG family molecular chaperone regulator 3 N43K, O95817 | -0.648 ± 0.24
2 | BAG family molecular chaperone regulator 3 N43L, O95817 | -0.629 ± 0.12
3 | BAG family molecular chaperone regulator 3 N43P, O95817 | -0.42 ± 0.3
4 | BAG family molecular chaperone regulator 3 N43Q, O95817 | -0.435 ± 0.43
5 | BAG family molecular chaperone regulator 3 N43R, O95817 | -0.549 ± 0.12
6 | BAG family molecular chaperone regulator 3 N43S, O95817 | 0.004 ± 0.2
7 | BAG family molecular chaperone regulator 3 N43T, O95817 | -0.416 ± 0.085
8 | BAG family molecular chaperone regulator 3 N43V, O95817 | -0.418 ± 0.12
9 | BAG family molecular chaperone regulator 3 N43W, O95817 | -0.415 ± 0.42
10 | BAG family molecular chaperone regulator 3 N43Y, O95817 | -0.366 ± 0.4
11 | BAG family molecular chaperone regulator 3 N50A, O95817 | 0.249 ± 0.15
12 | BAG family molecular chaperone regulator 3 N50C, O95817 | 0.032 ± 0.13
13 | BAG family molecular chaperone regulator 3 N50D, O95817 | -0.126 ± 0.2
14 | BAG family molecular chaperone regulator 3 N50E, O95817 | 0.063 ± 0.096
15 | BAG family molecular chaperone regulator 3 N50F, O95817 | 0.181 ± 0.11
16 | BAG family molecular chaperone regulator 3 N50G, O95817 | -0.358 ± 0.13
17 | BAG family molecular chaperone regulator 3 N50H, O95817 | -0.166 ± 0.19
18 | BAG family molecular chaperone regulator 3 N50I, O95817 | 0.656 ± 0.23
19 | BAG family molecular chaperone regulator 3 N50K, O95817 | -0.176 ± 0.11
20 | BAG family molecular chaperone regulator 3 N50L, O95817 | -0.181 ± 0.17
21 | BAG family molecular chaperone regulator 3 N50M, O95817 | -0.255 ± 0.086
22 | BAG family molecular chaperone regulator 3 N50P, O95817 | -0.353 ± 0.31
23 | BAG family molecular chaperone regulator 3 N50Q, O95817 | -0.176 ± 0.1

Row | Substance | abundance fitness
24 | BAG family molecular chaperone regulator 3 N50R, O95817 | -0.034 ± 0.13
25 | BAG family molecular chaperone regulator 3 N50S, O95817 | -0.26 ± 0.085
26 | BAG family molecular chaperone regulator 3 N50T, O95817 | -0.435 ± 0.11
27 | BAG family molecular chaperone regulator 3 N50W, O95817 | 0.441 ± 0.15
28 | BAG family molecular chaperone regulator 3 N50Y, O95817 | 0.235 ± 0.16
29 | BAG family molecular chaperone regulator 3 P21A, O95817 | 0.383 ± 0.085
30 | BAG family molecular chaperone regulator 3 P21C, O95817 | 0.548 ± 0.1
31 | BAG family molecular chaperone regulator 3 P21D, O95817 | -0.124 ± 0.16
32 | BAG family molecular chaperone regulator 3 P21E, O95817 | 0.307 ± 0.12
33 | BAG family molecular chaperone regulator 3 P21F, O95817 | 0.097 ± 0.21
34 | BAG family molecular chaperone regulator 3 P21G, O95817 | 0.43 ± 0.057
35 | BAG family molecular chaperone regulator 3 P21H, O95817 | -0.103 ± 0.26
36 | BAG family molecular chaperone regulator 3 P21K, O95817 | 0.439 ± 0.059
37 | BAG family molecular chaperone regulator 3 P21L, O95817 | -0.112 ± 0.094
38 | BAG family molecular chaperone regulator 3 P21M, O95817 | 0.673 ± 0.18
39 | BAG family molecular chaperone regulator 3 P21N, O95817 | -0.081 ± 0.21
40 | BAG family molecular chaperone regulator 3 P21Q, O95817 | 0.192 ± 0.063
41 | BAG family molecular chaperone regulator 3 P21R, O95817 | 0.382 ± 0.081
42 | BAG family molecular chaperone regulator 3 P21S, O95817 | 0.349 ± 0.089
43 | BAG family molecular chaperone regulator 3 P21V, O95817 | 0.443 ± 0.063
44 | BAG family molecular chaperone regulator 3 P21W, O95817 | -0.543 ± 0.086
45 | BAG family molecular chaperone regulator 3 P21Y, O95817 | -0.152 ± 0.21
46 | BAG family molecular chaperone regulator 3 P23A, O95817 | -0.378 ± 0.16

Row | Substance | abundance fitness
47 | BAG family molecular chaperone regulator 3 P23C, O95817 | -0.932 ± 0.19
48 | BAG family molecular chaperone regulator 3 P23E, O95817 | -0.544 ± 0.14
49 | BAG family molecular chaperone regulator 3 P23F, O95817 | -0.697 ± 0.44
50 | BAG family molecular chaperone regulator 3 P23G, O95817 | -0.622 ± 0.18
51 | BAG family molecular chaperone regulator 3 P23H, O95817 | 0.173 ± 0.23
52 | BAG family molecular chaperone regulator 3 P23I, O95817 | -0.612 ± 0.22
53 | BAG family molecular chaperone regulator 3 P23K, O95817 | -0.604 ± 0.094
54 | BAG family molecular chaperone regulator 3 P23L, O95817 | -0.858 ± 0.2
55 | BAG family molecular chaperone regulator 3 P23M, O95817 | -0.772 ± 0.34
56 | BAG family molecular chaperone regulator 3 P23Q, O95817 | -0.83 ± 0.33
57 | BAG family molecular chaperone regulator 3 P23S, O95817 | -0.864 ± 0.26
58 | BAG family molecular chaperone regulator 3 P23W, O95817 | -0.692 ± 0.095
59 | BAG family molecular chaperone regulator 3 P23Y, O95817 | -0.54 ± 0.29
60 | BAG family molecular chaperone regulator 3 P24A, O95817 | -0.464 ± 0.096
61 | BAG family molecular chaperone regulator 3 P24C, O95817 | -0.489 ± 0.29
62 | BAG family molecular chaperone regulator 3 P24D, O95817 | -0.597 ± 0.36
63 | BAG family molecular chaperone regulator 3 P24F, O95817 | -0.383 ± 0.31
64 | BAG family molecular chaperone regulator 3 P24G, O95817 | -0.77 ± 0.22
65 | BAG family molecular chaperone regulator 3 P24K, O95817 | 0.269 ± 0.16
66 | BAG family molecular chaperone regulator 3 P24M, O95817 | -0.662 ± 0.21
67 | BAG family molecular chaperone regulator 3 P24N, O95817 | 0.135 ± 0.24
68 | BAG family molecular chaperone regulator 3 P24Q, O95817 | -0.21 ± 0.14
69 | BAG family molecular chaperone regulator 3 P24R, O95817 | -0.037 ± 0.085

Row | Substance | abundance fitness
70 | BAG family molecular chaperone regulator 3 P24S, O95817 | 0.456 ± 0.099
71 | BAG family molecular chaperone regulator 3 P24T, O95817 | -0.036 ± 0.086
72 | BAG family molecular chaperone regulator 3 P24V, O95817 | -0.784 ± 0.23
73 | BAG family molecular chaperone regulator 3 P24W, O95817 | -0.659 ± 0.21
74 | BAG family molecular chaperone regulator 3 P24Y, O95817 | -0.31 ± 0.28
75 | BAG family molecular chaperone regulator 3 P32A, O95817 | -0.735 ± 0.17
76 | BAG family molecular chaperone regulator 3 P32D, O95817 | -0.64 ± 0.39
77 | BAG family molecular chaperone regulator 3 P32E, O95817 | -0.285 ± 0.13
78 | BAG family molecular chaperone regulator 3 P32F, O95817 | -0.511 ± 0.47
79 | BAG family molecular chaperone regulator 3 P32G, O95817 | 0.335 ± 0.076
80 | BAG family molecular chaperone regulator 3 P32K, O95817 | -0.002 ± 0.068
81 | BAG family molecular chaperone regulator 3 P32L, O95817 | -0.458 ± 0.12
82 | BAG family molecular chaperone regulator 3 P32M, O95817 | -0.766 ± 0.23
83 | BAG family molecular chaperone regulator 3 P32N, O95817 | 0.039 ± 0.29
84 | BAG family molecular chaperone regulator 3 P32Q, O95817 | -0.205 ± 0.28
85 | BAG family molecular chaperone regulator 3 P32R, O95817 | 0.039 ± 0.074
86 | BAG family molecular chaperone regulator 3 P32S, O95817 | -0.054 ± 0.087
87 | BAG family molecular chaperone regulator 3 P32T, O95817 | 0.423 ± 0.071
88 | BAG family molecular chaperone regulator 3 P32V, O95817 | -0.268 ± 0.13
89 | BAG family molecular chaperone regulator 3 P32W, O95817 | -0.316 ± 0.095
90 | BAG family molecular chaperone regulator 3 P32Y, O95817 | -0.23 ± 0.38
91 | BAG family molecular chaperone regulator 3 P37A, O95817 | 0.4 ± 0.12
